In assay [1] the target is T1, human-CD28-Fc fusion protein (human, UniProt P10747 19-152).
T1 construct: also called Fc fusion protein of the human-CD28 extracellular domain with IgG; hECD28-Fc
Kind of assay: phage ELISA, human-CD28-Fc coated at 2 µg/mL, anti-E tag HRP detection. Here is the method:
Each single colony obtained from the antibody library to which the panning had been applied was seeded in 200 μL of 2×YTAG culture medium and subjected to a shaking culture at 30° C. for 4 to 5 hours. Then, 200 μL of 1×10¹⁰ pfu/mL M13KO helper phage was added to the culture solution for the infection (the shaking culture at 30° C. for 1 hour). After changing the culture medium to 2×YTAK, the shaking culture was carried out at 30° C. overnight. The binding property to the antigen was examined by the following steps (ELISA) using this culture supernatant as a phage solution.
The human-CD28-Fc fusion protein was diluted with Coating buffer (50 mM carbonate buffer, pH 9) to give a concentration of 2 μg/mL. The obtained solution was put into the Maxisorp Plate (manufactured by Nalge Nunc International) at 50 μL/well and incubated at 4° C. overnight to be immobilized. Then, to the well, 200 μL/well of blocking reagent (SuperBlock (registered trademark) Blocking Buffer, manufactured by Pierce Protein Research) was added, the resulting object was incubated at a room temperature for 30 minutes to complete the blocking. To the well, 50 μL/well of each phage solution was added, and incubated at a room temperature for 1 hour. […] The absorbance at the wavelength of 450 nm was measured with a microplate reader (SPECTRAMAX190, manufactured by Molecular Devices Inc).
In general terms: In an ELISA, binding on a coated surface is turned into a signal by an enzyme label.

Assay [2] concerns the target T1, human-CD28-Fc fusion protein. Kind of assay: ELISA, human-CD28-Fc coated at 1 µg/mL, culture supernatant, anti-human κ HRP detection. Here is the method: (§1) The human-CD4O-Fc fusion protein and the human-CD28-Fc fusion protein were adjusted to give a concentration of 1 μg/mL using coating buffer (50 mM carbonate buffer, pH 9). To a well, 50 μL/well of the obtained human-CD4O-Fc fusion prostein or the obtained human-CD28-Fc fusion protein was added into the Maxisorp Plate (manufactured by Nalge Nunc International) respectively, and incubated at 4° C. overnight to be immobilized. Then, 200 μL/well of blocking reagent (SuperBlock (registered trademark) Blocking Buffer, manufactured by Pierce Protein Research) was added to the well, followed by incubation at room temperature for 30 minutes for blocking. Then, 50 μL/well of the culture supernatant comprising each antibody obtained in above Examples was added to the well followed by incubation at room temperature for 1 hour. After washing three times with Washing buffer (0.1% Tween20-TBS), Affinity Isolated Antibody HRP Conjugated Goat F(ab)₂ anti-Human κ (manufactured by EY Laboratories Inc) was diluted with assay diluent (0.1% Tween20-TBS containing Block Ace manufactured by Dainippon Sumitomo Pharma Co. Ltd. by 10%). Then, 50 μL of the obtained solution was added to each well followed by incubation at a room temperature for 1 hour. After washing three times with washing buffer, 50 μL of TMB (manufactured by Dako) coloring substrate solution was added to each well, followed by incubation in a dark room at room temperature. After developping color, 0.5 M vitriol (50 μL/well) was added to stop the reaction. The absorbance at the wavelength of 450 nm was measured with a microplate reader (SPECTRAMAX190, manufactured by Molecular Devices Inc).

In assay [3] the target is T2, human-CD40-Fc fusion protein (human, UniProt P25942 21-193).
T2 construct: also called human-CD4O-Fc fusion protein; not shown: Fc part; origin and limits not described
Description: ELISA, human-CD40-Fc coated at 1 µg/mL, culture supernatant, anti-human κ HRP detection. The procedure: as §1, with “After washing three times with washing buffer, 50 μL of TMB (manufactured by Dako) coloring substrate solution was added to each well, followed by incubation in a dark room at room temperature. After developping color, 0.5 M vitriol (50 μL/well) was added to stop the reaction.” left out

Positions count from the first letter of the chain named.

T1 sequence (P10747 19-152): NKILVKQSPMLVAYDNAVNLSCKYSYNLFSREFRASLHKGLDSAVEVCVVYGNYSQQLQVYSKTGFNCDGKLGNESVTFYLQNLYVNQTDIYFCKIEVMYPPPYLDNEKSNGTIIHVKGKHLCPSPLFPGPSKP
T2 sequence (P25942 21-193 limits assumed): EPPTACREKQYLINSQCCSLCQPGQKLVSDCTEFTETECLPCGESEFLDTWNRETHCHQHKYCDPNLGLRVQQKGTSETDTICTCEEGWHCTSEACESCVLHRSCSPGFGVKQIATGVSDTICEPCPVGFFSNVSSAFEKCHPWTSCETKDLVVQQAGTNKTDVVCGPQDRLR

B1: 341VL34 scFv (scFv)
scFv: EVQLVESGGGLVKPGGSLRLSCGGSGFTFNNAWMNWVRQAPGKGLEWVGRIKGKTDGGTADYAAPVKGRFTISRDYSKNTLYLQMNSLTTEDTAVYYCNTDLPYYYGSGRYSGMDVWGQGTTVTVSSGGGGSGGRASGGGGSEIVLTQSPATLSLSPGERATLSCRASQSVSSYLAWYQQKPGQAPRLLIYDASNRATGIPARFSGSGSGTDFTLTISSLEPEDFAVYYCQQRSNTFGPGTKVDIK
notes: phage culture supernatant
On to B1, for which the binding result in assay [1] is “binds”.

B2: 341VL36 scFv (scFv)
scFv: B1 scFv with T89K, A94G, N99T, D101Y, G109E, Y111W
notes: phage culture supernatant
As for B2, in assay [1], the binding result is “binds”.

B3: anti-CD28 antibody 341VL34 (antibody, V domains shown)
VH: EVQLVESGGGLVKPGGSLRLSCGGSGFTFNNAWMNWVRQAPGKGLEWVGRIKGKTDGGTADYAAPVKGRFTISRDYSKNTLYLQMNSLTTEDTAVYYCNTDLPYYYGSGRYSGMDVWGQGTTVTVSS
VL: EIVLTQSPATLSLSPGERATLSCRASQSVSSYLAWYQQKPGQAPRLLIYDASNRATGIPARFSGSGSGTDFTLTISSLEPEDFAVYYCQQRSNTFGPGTKVDIK
notes: Made in the N5KG2Ser vector; Tested as culture supernatant; not shown: human immunoglobulin kappa light chain constant region
Consider B3, for which the binding result is recorded as “binds” in assay [2] and “no binding” in assay [3].

B4: anti-CD28 antibody 341VL36 (antibody, V domains shown)
VH: B3 VH with T89K, A94G, N99T, D101Y, G109E, Y111W
VL: B3 VL
notes: as for B3
B4: the binding result in assay [2] is recorded as “binds”; in assay [3], “no binding”.

The record behind these values is patent US20170335016A1 (Kyowa Kirin, published 2017).
